# Test results published in the DeepSol protein solubility set.
# Assay: soluble on expression in E. coli; label from the status in PepcDB or PDB records
row,Sequence,soluble on expression in E. coli
1,MAETVESSLAKSHIEGSFTNVWKDDKTLDWYANYEGILWKATGVVVITGDETQVYAIWVPVGLAIPENEGGGSEGGGSEGGGSEGGGTKPPEYGDTPIPGYIYINPLDGTYPPGTEQNPANPNPSLEESHPLNTFMFQGNRFRNRQGALTVYTGTVTQGTDPVKTYYQYTPVSSKAMYDAYWNGKFRDVAFHSGFNEDPLVAEYQGQLSYLPQPPVNAPSGHHHHHH,soluble
2,MERNDIINFKALEKELQAALTADEKYKRENAAKLRAVEQRVASYEEFRGIVLASHLKPLERKDKMGGKRTVPWNCHTIQGRTFQDVATEISPEKAPLQPETSADFYRDWRRHLPSGPERYQALLQLGGPRLGCLFQTDVGFGLLGELLVALADHVGPADRAAVLGILCSLASTGRFTLNLSLLSRAERESCKGLFQKLQAMGNPRSVKEGLSWEEQGLEEQSGGLQEEERLLQELLELYQVD,soluble
3,MGSDKIHHHHHHMKKQPLAYRMRPSNIDEVIGQQHLVGEGKIIRRMVDAGQLSSMILYGPPGVGKTSIAQAIAGSTDTHYKLLNAVVNNKKDMEIVVEEAKMSGQLILILDEVHRLDKGKQDFLLPHLEKGLLILIGATTANPFHSINPAIRSRCQIFELTPLTTDEIKVALTRALTDKTHGLGEEPVVISDEALAHFAFACGGDVRSALNGLELAVRSTQPNVKGEKEITLSVAEECIQRKSFHHDKDGDAHYDVLSAFQKSIRGSDVNAALHYLARLIEAGDLVSIGRRLLVIAYEDIGLANPQAGPRTLAAIEAAERLGFPEGRIPLANAVVELCLSPKSNSAYVALDAAIADIRKGHVGSVPAHLKDAHYKGAEQLGRGIGYKYPHDYERGWVKQQYLPDSLKSRAYYEPKRTGKFEDALADVYEKLRKSTFSKES,not soluble
4,MGHHHHHHGGHMSLDYQKEYERKLISPEEAANLVKDGMHIEIGGSANTALIIDKYLAKRKDELSHVEVGTFIDIAHYEFLKADPEQEKIKWESCFLYEPVRKCSKELGPCVHRPGVLSDAGYIAKELGGVLKGGKKYTDIAFLVTTPMDRHGFFNFGVTCTFLKSIAEGAEKVVVVVKKDMPWVNGGYDECIHISEVDYIVEDNEFPTPFLPFLPPPSKEDEMIAENIMEAGLIENGSTLQVGIGGLPNTVVRMLKEAGLKDLGIHTEMMGDGLMELMEEGIVTNQNKKLDRGKAVFSFALGTRKLYDFLDRNPEVATYPVEYTNNPFVVAQQPKMFSLNQVAQIDLMGQINSGQIGLTSPSGKIFQISGTGGQLDFVLGCFYSFDRQGKSVLATYSTYNGTSRIIPALPTGAGVTVPRSVVQYVATEWGIAYLRGLPIYKRAAAMIQLAHPDHRDWLEEEARKLGILPPKYSIPAGKADGVIYRRDEGGS,soluble
5,GEERKSSSWGRVDAMELPNYSRQLLQQLYTLCKEQQFCDCTISIGTIYFRAHKLVLAAASLLFKTLLDNTDTISIDASVVSPEEFALLLEMMYTGKLPVGKHNFSKIISLADSLQMFDVAVSCKNLLTSLVNCSVQGQVVRDVSAPSSETFRKEPEKPQVEILSSEGAGEPHSSPELAATPGGPVKAETEEAAHSVSQEMSVNSPTAQESQRNAETPAETPTTAEACSPSPPVQTFSEAKKTSTEPGCERKHYQLNFLLENEGVFSDALMVTQDVLKKLEMCSEIKGPQKEMIVKCFEGEGGHSAFQRILGKVREESLDVQTVVSLLRLYQYSNPAVKTALLDRKPEDVDTVQPKGSTEEGKTLSVLLLEHKEDLIQCVTQLRPIMESLETAKEEFLTGTEKRVILNCCEGRTPKETIENLLHRMTEEKTLTAEGLVKLLQAVKTTFPNLGLLLEKLQKSATLPSTTVQPSPDDYGTELLRRYHENLSEIFTDNQILLKMISHMTSLAPGEREVMEKLVKRDSGSGGFNSLISAVLEKQTLSATAIWQLLLVVQETKTCPLDLLMEEIRREPGADAFFRAVTTPEHATLETILRHNQLILEAIQQKIECKLFTSEEEHLAETVKEILSIPSETASPEASLRAVLSRAMEKSVPAIEICHLLCSVHKSFPGLQPVMQELAYIGVLTKEDGEKETWKVSNKFHLEANNKEDEKAAKEDSQPGEQNDQGETGSLPGQQEKEASASPDPAKKSFICKACDKSFHFYCRLKVHMKRCRVAKSKQVQCKECSETKDSKKELDKHQLEAHGAGGEPDAPKKKKKRLPVTCDLCGREFAHASGMQYHKLTEHFDEKPFSCEECGAKFAANSTLKNHLRLHTGDRPFMCKHCLMTFTQASALAYHTKKKHSEGKMYACQYCDAVFAQSIELSRHVRTHTGDKPYVCRDCGKGFRQANGLSIHLHTFHNIEDPYDCKKCRMSFPTLQDHRKHIHEVHSKEYHPCPTCGKIFSAPSMLERHMVTHVGGKPFSCGICNKAYQQLSGLWYHNRTHHPDVFAAQNHRSSKFSSLQCSSCDKTFPNTIEHKKHIKAEHADMKFHECDQCKELFPTPALLQVHVKCQHSGSQPFRCLYCAATFRFPGALQHHVTTEHFKQSETTFPCELCGELFTSQAQLDSHLESEHPKVMSTETQAAASQMAQVIQTPEPVAPTEQVITLEETQLAGSQVFVTLPDSQASQASSELVAVTVEDLLDGTVTLICGEAK,soluble
6,MGSDKIHHHHHHMAFAQLQIVSSLADAYSKDGADALILIGNFDSIDDSALAETIQQAQITDQRVGKQPLLLKADGVPGQRLVAAPTGPLNRDFDDVRQVFDAAHAAAKVAQDAGARHPVIALNNVNVNDERYQQAFLAAYLGFCQALYQPLEAREAHGEEAIEPTQNVILVGELDVEWAMAVEAGKRVARDLAGTEPERMAPPKFAEYCRQAFAHTSVKVTVIDDYQQLQHEYPLLAAVGRSSMAVERHRPCVIRLEYHGNNPERTVMFAGKGIVYDTGGADLKTGGHMAGMSRDKGGAAGVAGFLKTVSELQPEHLNVVAEIGAVRNSIGSDAFVADEIITGHSGKRVRIGNTDAEGRLIMADLLSHLREEAAKSDGEHELYTVATLTGHAALSKGPYSALVPNGHARRQNLAQALFNAGETYGDPTEISWSRREDFDFVKGRTLCDDLLSSNNGPSAATPRGHQFPMAFLTGVSGLDNHGIDSEHPISYIHIDIAGSGVEGGDWQHGKPTAAPVTCLAGHYLKK,not soluble
7,MGKKMVVALGGNAILSNDASAHAQQQALVQTSAYLVHLIKQGHRLIVSHGNGPQVGNLLLQQQAADSEKNPAMPLDTCVAMTQGSIGYWLSNALNQELNKAGIKKQVATVLTQVVVDPADEAFKNPTKPIGPFLTEAEAKEAMQAGAIFKEDAGRGWRKVVPSPKPIDIHEAETINTLIKNDIITISCGGGGIPVVGQELKGVEAVIDKDFASEKLAELVDADALVILTGVDYVCINYGKPDEKQLTNVTVAELEEYKQAGHFAPGSMLPKIEAAIQFVESQPNKQAIITSLENLGSMSGDEIVGTVVTK,soluble
8,MKFYEEKIDSKRVFEGKMISVRVDRVRLPDGRESTREVVDHPGAVVIVPVLGGKILFVEQYRYPIEQVLLELPAGKLDPGESPEECAKRELEEETGYRAKKLSYLGKIFTTPGFTTEVIHIFAAEDLEKTSQNTDPDEFIEVKEVPIEEALSLLKNAEIEDSKTICALTRFFFAKGVIR,soluble
9,MGHHHHHHSHANCAENEEGCTPLHLACRKGDGEILVELVQYCHTQMDVTDYKGETVFHYAVQGDNSQVLQLLGRNAVAGLNQVNNQGLTPLHLACQLGKQEMVRVLLLCNARCNIMGPNGYPIHSAMKFSQKGCAEMIISMDSSQIHSKDPRYGASPLHWAKNAEMARMLLKRGCNVNSTSSAGNTALHVAVMRNRFDCAIVLLTHGANADARGEHGNTPLHLAMSKDNVEMIKALIVFGAEVDTPNDFGETPTFLASKIGRLVTRKAILTLLRTVGAEYCFPPIHGVPAEQGSAA,not soluble
10,MSKNKNDYEHMLFYFAYKTFITTADEIIEQYGMSRQHHRFLFFINKLPGITIKELLITLEISKQGSHATLRKLKEEGLIVEQTSKQDRRVKKLFTTEAGDDLIGKLNQAQDELIQQTLQKVGHDWYAMMEELANYREGFKTIEHLKED,soluble
11,MSLGPVGMSGGMDINSMVSKIVDAERVPKQQRIDNDRTTINASISAYGRLRESLDTMKNLMANFRQEKAFAVRTVETTDDNIVSATATTDAIAGKYAIDVLQLAQSHK,not soluble
12,MGSDKIHHHHHHMDKFKTIALFMSTIETGSFSATAKKHATDPSTVSKAIKRLEEQLGLQLLYRSTRQLSLTSAGQKYADTVGSLYQQLESCEHELKSANNSYSGALKINLPVSYGRVYMLPMLSRFKKAYPDIELEVSFNDQYVDMISDAVDVSIRSGTLNDSRLVAQKLSPMAFVICASSDLLATRKVDISNEGLVALPWVLFRFKQTGKTMPINFSYQGCHIDIEPKKVTIVDDGETMAQMCAEGLGLSLMPHFNAKALVVAGKMKVVAILDEFPSSGVFIVYPKRKDLPRRTQVFIEFVKDYLKEIGETPSKTWLDTSINSS,not soluble
13,QFWDLNAKLVDIPTKMRVERWAFNFSELIRDPKGRQSFQHFLRKEFSGENLGFWEACEDLKYGDQSKVKEKAEEIYKLFLAPGARRWINIDGKTMDITVKGLKHPHRYVLDAAQTHIYMLMKKDSYARYLKSPIYKEMLAKAIEPQG,soluble
14,MQEHFHFTTDPAKLQKQYAAIFCFVSAQLSLIQMYLHRRNRHLVKQEDEVVMAVHLLGKLLGFSSERAWHRFVTGNLFTNGSFLERSRYNRRCRALGFAVKWIRHELAKRGQHHAYAVVDSLPLPLCHPARMQRVKRFRGIADMGYCASKKQWYYGFKLHLQVTHQGLAMGYVVTEASCHDVKAAETVMTQIPHPYNFGDKGYISRALREKLYEEHQAAFWTPSRHNQKHGPSKAWEEWIRKKRKVIETVFSILVDQYRITDIRANSIAGFEVALDGILVAYSLVTLGLVER,not soluble
15,PADLSGTWTLLSSDNFEGYMLALGIDFATRKIAKLLKPQKVIEQNGDSFTIHTNSSLRNYFVKFKVGEEFDEDNRGLDNRKCKSLVIWDNDRLTCIQKGEKKNRGWTHWIEGDKLHLEMFCEGQVCKQTFQRA,soluble
16,MKIAVDAMGGDNAPQAIVEGVMLAKQDFPDIEFQLYGKEAEIKKYITDEKNITIIHTDEKIASDDEPVKAIRRKKTASMVLAAQAVKNGEADAIFSAGNTGALLAAGLFIVGRIKNVERPGLMSTLPVMGEPDKGFDMLDLGANADNKPEHLVQYAVLGSFYAEKVRNVQNPRVGLLNNGTEETKGSELTKKAFELLAADETINFVGNVEARELLNGVADVVVTDGFTGNAVLKSIEGTAMNMMSLLKTAILSEGVKGKMGALLLKNALHGMKDEMDYSKHGGAVLFGLKAPVIKTHGATGPDAVRYTIRQIHTMLETQVVPQLVEYYEGKAE,soluble
17,MSLNTISGTHFNYHQVCRRKLWLFSAGITMEHTSDLVYEGKLIHETTYQQRPERYQELELDGIKIDFYDAKNRVVHEVKKSNKISPAHRLQLLYYLYVLERNGVLGATGILEYPTLRKKEEVILSDIDRERIREIEQEILQIISHEDCPPVIDSGICKNCSYYEFCFSGEEQEGHHHHHH,soluble
18,MSLNNNDLVAKLWKLCDNLRDGGVSYQNYVNELASLLFLKMCKETGQEAEYLPEGYRWDDLKSRIGQEQLQFYRKMLVHLGEDDKKLVQAVFHNVSTTITEPKQITALVSNMDSLDWYNGAHGKSRDDFGDMYEGLLQKNANETKSGAGQYFTPRPLIKTIIHLLKPQPREVVQDPAAGTAGFLIEADRYVKSQTNDLDDLDGDTQDFQIHRAFIGLELVPGTRRLALMNCLLHDIEGNLDHGGAIRLGNTLGSDGENLPKAHIVATNPPFGSAAGTNITRTFVHPTSNKQLCFMQHIIETLHPGGRAAVVVPDNVLFEGGKGTDIRRDLMDKCHLHTILRLPTGIFYAQGVKTNVLFFTKGTVANPNQDKNCTDDVWVYDLRTNMPSFGKRTPFTDEHLQPFERVYGEDPHGLSPRTEGEWSFNAEETEVADSEENKNTDQHLATSRWRKFSREWIRTAKSDSLDISWLKDKDSIDADSLPEPDVLAAEAMGELVQALSELDALMRELGASDEADLQRQLLEEAFGGVKEEGGSHHHHHH,soluble
